Test results as given in US8895303B2, “Method of cell culture and method of treatment comprising a vEPO protein variant” (Charite-Universitatsmedizin Berlin, priority 2006, dated 2014).

B1: mG3: murine EPO variant, peptide sequence SEQ ID NO 16 (protein, listed as Mus musculus)
chain: MGVPERPTLLLLLSLLLIPLGLPVLCAPPRLICDSRVLERYILEAKEAENVTMGCAEGPRLSENITVPDTKVNFYAWKRMEVEEQAIEVWQGLSLLSEAILQAQALLANFLRGKLKLYTGEVCRRGDR
B2: mS: murine EPO splice variant, peptide sequence SEQ ID NO 14 (protein, listed as Mus musculus)
chain: MGVPERPTLLLLLSLLLIPLGLPVLCAPPRLICDSRVLERYILEAKEAENVTMGCAEGPRLSENITVPDTKVNFYAWKRMEKELMSPPDTTPPAPLRTLTVDTFCKLFRVYANFLRGKLKLYTGEVCRRGDR
B3: mEPO: wild type mouse erythropoietin expressed in HEK cells (protein, listed as Mus musculus)
chain: MGVPERPTLLLLLSLLLIPLGLPVLCAPPRLICDSRVLERYILEAKEAENVTMGCAEGPRLSENITVPDTKVNFYAWKRMEVEEQAIEVWQGLSLLSEAILQAQALLANSSQPPETLQLHIDKAISGLRSLTSLLRVLGAQKELMSPPDTTPPAPLRTLTVDTFCKLFRVYANFLRGKLKLYTGEVCRRGDR

Columns and labels:
bone marrow cells = experiment: Erythroid colony formation assay (CFU-E); format: cell-based, mouse; settings: 150 U/l mEPO or rhEPO, comparable protein concentrations of variants; no additional cytokines; counted at DIV2
Protocol: Bone marrow cells were harvested from tibia and femur of male […] mice (8-11 weeks) and resuspended in α-medium (supplemented with 10% fetal calf serum GOLD, 1% penicillium/streptavidine and 1% L-glutamine). Cells were seeded in […] Petri dishes (225.000 cells/dish) containing 8 parts Metho Cult SF 3236 methyl cellulose (StemCell Technologie Inc), 1 part cells and 2 parts a-medium mixed with HEK-cell preconditioned medium containing the EPO derivates (150 U/l in the case of murine EPO). 150 U/l of rhEPO (Roche) was used as positive control. Plates were incubated at 37° C. in a humidified atmosphere containing 5% CO2 for 48 hours. For evaluation only reddish colonies containing at least 6 hemoglobinised cells were taken into account.
Metho Cult SF 3236 triggers the formation of colonies (CFU-M, CFU-G or CFU-E) only after addition of the appropriate cytokines. […] The small irregular reddish colonies disappear by day 3.
In this assay, the hematopoietic potential of the variants was tested and compared to wild type form of EPO as well as rhEPO. The following conditions were prepared for comparison: medium from HEK cells transfected with pZ/EG as negative control, medium from HEK cells transfected with pZ/EG cells plus 150U/l rhEPO (Roche) as a positive control, and medium from HEK cells transfected with either pZ/EG-EPO-IRES (150 U/l murine EPO), pZ/EG-Splice-IRES (variant S; mS) or pZ/EG-G3-IRES (variant G3; mG3). At DIV2 only reddish colonies were counted containing at least 6 hemoglobinised cells. The results of three independent experiments are depicted in FIG. 5.

[1] = system: rat primary cortical neurons; experiment: Oxygen glucose deprivation (OGD) neuroprotection assay, LDH release; format: cell-based; settings: for neuroprotection (reduction in LDH release): OGD 3 h 15 min (higher level of damage)
Protocol: Rat primary neuronal cultures were obtained from E16 to early E19 embryos of Wistar rats (Bundesinstitut für gesundheitlichen Verbraucherschutz and Veterinärmedizin, Berlin, Germany). Cre-expressing mouse neurons were obtained from E16 embryos of heterozygous transgenic mice expressing Cre-recombinase under the control of the tubulin α-1 promoter (provided by Dr. U. Schweitzer; Experimental Endocrinology, Charité). Murine and rat cultures were prepared according to a modified protocol from Brewer (1995) J Neurosci Res. 42: 674-83. Cerebral cortex was isolated after removal of meninges and rinsed twice in PBS (Biochrom, Berlin, Germany). After 15 min incubation in trypsin/EDTA (0.05/0.02% w/v in PBS) at 37° C., tissues were rinsed twice in N-Med (modified Eagle's medium from Gibco with 10% fetal calf serum, 100 U penicillin plus streptomycin from Biochrom, 2 mM L-glutamine, 100 IE insulin/I, 10 mM HEPES and 44 mM glucose) and dissociated carefully in a small volume of N-Med using a Pasteur pipette. […]
For OGD, the culture medium was washed out by rinsing once with PBS. […] After 24 h, lactate dehydrogenase (LDH) activity was measured in the supernatants as an indicator of cell death.
For LDH measurement 25 μl of medium was mixed with 100 μl fresh β-NADH solution (0.15 mg/ml in 1×LDH-buffer; Sigma, reduced form) in a 96 wells plate (Greiner). 25 μl of 22.7 mM pyruvate (Sigma) was added immediately before placing the plate into the Reader (Thermo Labsystems; MRX^TC Revelation). […] LDH-concentration was calculated proportionally to the LDH-standard (Greiner, system calibrator). […]
For pretreatment with rhEPO, wild type mEPO, wild type hEPO or EPO variants the medium was removed to an end volume of 200 μl and filled up with 200 μl fresh NBM+B27 containing equimolar amounts (corresponding to 200 U/l rhEpo) of EPO or EPO variants, respectively. […] Cell death was assessed 24 h after OGD by measurement of LDH release. […]

| Molecule | hematopoietic potential (formation of CFU-E) (bone marrow cells) | neuroprotection (reduction in LDH release) [1] [%] | protection rate (reduction in LDH release) ([1]; OGD 1 h 40 min and 1 h 50 min) |
| --- | --- | --- | --- |
| B1 | lacked hematopoietic potential | ~60 |  |
| B2 | lacked hematopoietic potential | ~60 |  |
| B3 | formation of cfu-e |  | no protection |
